Measurements from patent US8734803.

Molecular target: NA (neuraminidase) used in the NA activity inhibition experiments of Example 9
Assay: cell-based or functional assay

Binder | IC50, inhibition of NA activity [mg/L]
plant-produced humanized 2B9 antibody G2K3 (antibody, V domains shown) VH: QVQLVQSGSELKKPGASVKMSCKAAGYTFTNYWIGWVRQAPGQGLEWIGDIYPENDFSNYNEKFKDRATLTADTSTRTAYMELSSLRSEDTAVYYCVRANEGWYLDVWGQGTTVTVSS VL: DIQMTQSPSSLSASVGDRVTITCRASENIYSYLAWYQQKPGKAPKLLVYFAKTLAEGVPSRFSGSGSGTEFTLTISSLQPDDFANYYCQHHYGTPYTFGQGTKLEIKR | 0.5
plant-produced humanized 2B9 antibody G5K3 (antibody, V domains shown) VH: QVQLVQSGSELKKPGASVKVSCKAAGYTFTNYWIGWVRQAPGQGLEWIGDIYPENDFSNYNEKFKDRVTITADTSTSTAYMELSSLRSEDTAVYYCVRANEGWYLDVWGQGTTVTVSS VL: DIQMTQSPSSLSASVGDRVTITCRASENIYSYLAWYQQKPGKAPKLLVYFAKTLAEGVPSRFSGSGSGTEFTLTISSLQPDDFANYYCQHHYGTPYTFGQGTKLEIKR | 0.45
plant-produced humanized 2B9 antibody G5K4 (antibody, V domains shown) VH: QVQLVQSGSELKKPGASVKVSCKAAGYTFTNYWIGWVRQAPGQGLEWIGDIYPENDFSNYNEKFKDRVTITADTSTSTAYMELSSLRSEDTAVYYCVRANEGWYLDVWGQGTTVTVSS VL: DIQMTQSPSSLSASVGDRVTITCRASENIYSYLAWYQQKPGKAPKLLVYFAKTLAEGVPSRFSGSGSGTEFTLTISSLQPDDFATYYCQHHYGTPYTFGQGTKLEIKR | 0.21
plant-produced humanized 2B9 antibody G2K4 (antibody, V domains shown) VH: QVQLVQSGSELKKPGASVKMSCKAAGYTFTNYWIGWVRQAPGQGLEWIGDIYPENDFSNYNEKFKDRATLTADTSTRTAYMELSSLRSEDTAVYYCVRANEGWYLDVWGQGTTVTVSS VL: DIQMTQSPSSLSASVGDRVTITCRASENIYSYLAWYQQKPGKAPKLLVYFAKTLAEGVPSRFSGSGSGTEFTLTISSLQPDDFATYYCQHHYGTPYTFGQGTKLEIKR | 1.16
